Patent US20050201999A1

Biological target: TcpJ, type 4 prepilin peptidase of Vibrio cholerae (wild-type) (Vibrio cholerae)

Aprotinin (from UniProt P00974)
% Cleavage of TcpA prepilin by TcpJ in the in vitro cleavage assay: 100%
